These results are taken from the supplement of paper PMC6379048.

Common to all, as to assay: Kd (EC50 corrected by depletion factor)
Data set [1] concerns the target T1, LSM1 (UniProt O15116).
T1 sequence: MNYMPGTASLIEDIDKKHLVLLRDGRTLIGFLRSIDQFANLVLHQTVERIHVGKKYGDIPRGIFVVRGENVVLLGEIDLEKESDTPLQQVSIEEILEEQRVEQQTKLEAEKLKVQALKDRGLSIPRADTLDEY
Put shortly:
(§1)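 Over three biological replicates and two independent experiments, proteins captured on NHS-Sepharose beads carrying 5′-amino-C6 RNA oligos were quantified by label-free LC-MS/MS and normalised to the control. Capture lasted 30 min at 4°C and followed a 1 h pre-incubation at 4°C of HEK293-FT lysate (2.5 mg protein/well) with the same oligos in free form (0 nM to 30 μM). EC50 was taken from a four-parameter log-logistic fit, and Kd was EC50 corrected by a protein-dependent depletion factor.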

The target of data set [2] is T2, MEX3A (UniProt A1L020).
T2 sequence: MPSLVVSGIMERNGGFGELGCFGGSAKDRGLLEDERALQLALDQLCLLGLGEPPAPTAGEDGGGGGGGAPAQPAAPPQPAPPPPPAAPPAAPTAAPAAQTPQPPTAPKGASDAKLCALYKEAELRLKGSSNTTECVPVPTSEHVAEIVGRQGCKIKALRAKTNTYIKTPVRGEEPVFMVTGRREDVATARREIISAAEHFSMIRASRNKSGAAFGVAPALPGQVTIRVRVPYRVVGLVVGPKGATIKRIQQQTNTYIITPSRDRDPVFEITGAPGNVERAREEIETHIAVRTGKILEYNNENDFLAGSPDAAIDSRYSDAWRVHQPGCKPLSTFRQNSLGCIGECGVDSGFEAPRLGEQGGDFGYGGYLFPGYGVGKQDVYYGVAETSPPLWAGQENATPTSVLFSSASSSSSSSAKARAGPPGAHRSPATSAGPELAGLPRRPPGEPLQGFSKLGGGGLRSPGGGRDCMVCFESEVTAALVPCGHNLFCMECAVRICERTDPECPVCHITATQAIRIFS
The procedure, abridged:
as §1

Data set [3] concerns the target T3, AQR (UniProt O60306).
T3 sequence: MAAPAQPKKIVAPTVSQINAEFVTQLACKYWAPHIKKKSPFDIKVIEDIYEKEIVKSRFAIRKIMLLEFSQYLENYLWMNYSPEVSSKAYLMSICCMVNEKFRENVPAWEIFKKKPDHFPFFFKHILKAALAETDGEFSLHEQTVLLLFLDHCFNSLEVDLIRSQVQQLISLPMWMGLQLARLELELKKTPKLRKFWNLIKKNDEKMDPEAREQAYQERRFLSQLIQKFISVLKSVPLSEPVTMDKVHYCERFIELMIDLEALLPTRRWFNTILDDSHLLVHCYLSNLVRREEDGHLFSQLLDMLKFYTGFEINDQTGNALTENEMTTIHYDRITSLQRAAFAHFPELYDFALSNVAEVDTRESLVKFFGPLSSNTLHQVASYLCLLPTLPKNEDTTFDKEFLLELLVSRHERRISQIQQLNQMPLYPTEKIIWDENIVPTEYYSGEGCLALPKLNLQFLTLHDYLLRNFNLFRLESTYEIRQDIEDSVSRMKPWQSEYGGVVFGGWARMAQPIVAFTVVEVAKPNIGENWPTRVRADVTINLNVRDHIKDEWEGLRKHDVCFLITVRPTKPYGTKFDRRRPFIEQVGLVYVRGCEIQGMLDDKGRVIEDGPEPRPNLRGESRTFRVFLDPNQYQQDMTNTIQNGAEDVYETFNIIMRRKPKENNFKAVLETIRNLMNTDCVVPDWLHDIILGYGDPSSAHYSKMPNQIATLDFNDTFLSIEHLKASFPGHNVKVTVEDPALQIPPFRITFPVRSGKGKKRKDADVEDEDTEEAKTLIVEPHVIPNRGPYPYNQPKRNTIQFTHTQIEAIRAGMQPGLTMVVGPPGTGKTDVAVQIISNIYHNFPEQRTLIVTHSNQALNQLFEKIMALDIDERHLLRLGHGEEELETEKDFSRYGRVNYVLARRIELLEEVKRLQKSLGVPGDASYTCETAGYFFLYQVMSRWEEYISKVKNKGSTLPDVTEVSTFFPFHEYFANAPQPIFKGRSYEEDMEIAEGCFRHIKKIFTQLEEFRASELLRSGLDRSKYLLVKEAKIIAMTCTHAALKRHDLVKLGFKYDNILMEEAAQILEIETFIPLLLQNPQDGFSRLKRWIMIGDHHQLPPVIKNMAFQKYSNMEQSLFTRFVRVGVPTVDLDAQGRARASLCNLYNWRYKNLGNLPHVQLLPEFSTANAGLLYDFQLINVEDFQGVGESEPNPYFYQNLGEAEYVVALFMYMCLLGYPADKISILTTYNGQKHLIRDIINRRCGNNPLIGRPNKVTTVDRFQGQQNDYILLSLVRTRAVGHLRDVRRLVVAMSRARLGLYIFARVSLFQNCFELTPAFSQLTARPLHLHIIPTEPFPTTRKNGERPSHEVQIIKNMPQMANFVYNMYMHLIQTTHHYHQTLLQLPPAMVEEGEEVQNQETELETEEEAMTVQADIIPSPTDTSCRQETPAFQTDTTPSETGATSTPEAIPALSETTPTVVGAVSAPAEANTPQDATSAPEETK
The procedure, abridged:
as §1

The target in data set [4] is T4, RBM17 (UniProt Q96I25).
T4 sequence: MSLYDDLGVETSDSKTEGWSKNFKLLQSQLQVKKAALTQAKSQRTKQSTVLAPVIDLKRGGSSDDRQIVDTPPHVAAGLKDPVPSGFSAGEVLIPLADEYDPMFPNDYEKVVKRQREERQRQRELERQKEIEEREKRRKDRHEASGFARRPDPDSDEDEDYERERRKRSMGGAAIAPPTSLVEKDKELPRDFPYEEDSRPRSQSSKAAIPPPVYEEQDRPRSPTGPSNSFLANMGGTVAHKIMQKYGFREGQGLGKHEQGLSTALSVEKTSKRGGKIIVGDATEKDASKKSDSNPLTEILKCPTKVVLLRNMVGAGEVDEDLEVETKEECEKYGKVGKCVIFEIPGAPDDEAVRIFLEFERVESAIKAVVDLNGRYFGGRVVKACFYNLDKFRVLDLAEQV
The procedure, abridged:
as §1

Data set [5] has as its target ZCCHC24 (UniProt Q8N2G6). The procedure, abridged: as §1

Sequence of ZCCHC24 (Q8N2G6 whole entry): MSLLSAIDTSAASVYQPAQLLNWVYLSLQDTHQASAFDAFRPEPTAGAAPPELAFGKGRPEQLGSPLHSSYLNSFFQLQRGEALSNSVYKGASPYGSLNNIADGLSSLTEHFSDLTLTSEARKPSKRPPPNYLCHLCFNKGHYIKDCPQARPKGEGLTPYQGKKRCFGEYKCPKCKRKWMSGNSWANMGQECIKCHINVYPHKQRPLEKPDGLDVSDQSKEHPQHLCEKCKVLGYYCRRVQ

On to AAUAAA, for which the Kd in data set [1] was found to be 0.0232 µM; in data set [2], 0.536 µM; in data set [3], 0.213 µM; in data set [4], 0.94 µM; in data set [5], 0.207 µM.

In the case of UAUUUAU, the Kd in data set [1] worked out at 0.167 µM; in data set [2], 0.277 µM; in data set [3], 0.32 µM; in data set [4] it was 0.0599 µM; in data set [5], 1.91 µM.
